Measured values as given in the supplement of paper PMC5998384.

Experiments:
[1] = test system: HeLa Kyoto; test: solubility change mitosis vs G1/S (difference of NP-40 vs SDS log2 ratios) (log2 ratio difference); higher = more soluble in mitosis
[2] = test system: HeLa Kyoto; test: thermal stability score vs G1/S (z-score of summed log2 fold changes over temperatures); higher = more thermally stable than in G1/S
[3] = test system: HeLa Kyoto; test: melting temperature (median over replicates), in situ; higher = more thermally stable
[4] = cell cycle stage: early G1 (4.5 h after nocodazole release)
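For melting temperature (median over replicates), in situ in this document: HeLa Kyoto cells synchronized by double thymidine or nocodazole block, proteins quantified by TMT10plex mass spectrometry, three independent biological replicates.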
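For solubility change mitosis vs G1/S (difference of NP-40 vs SDS log2 ratios) in this document: synchronized HeLa Kyoto cells (double thymidine block for G1/S, nocodazole release for mitosis), protein amounts in NP-40 versus SDS lysates quantified by mass spectrometry, three biological replicates.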
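For thermal stability score vs G1/S (z-score of summed log2 fold changes over temperatures) in this document: synchronized HeLa Kyoto cells, proteins quantified by TMT10plex mass spectrometry, three biological replicates, mitosis taken 0.5 h after nocodazole release, G1/S directly after double thymidine block.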

Sequence of SBF2 (chain, as listed by the source): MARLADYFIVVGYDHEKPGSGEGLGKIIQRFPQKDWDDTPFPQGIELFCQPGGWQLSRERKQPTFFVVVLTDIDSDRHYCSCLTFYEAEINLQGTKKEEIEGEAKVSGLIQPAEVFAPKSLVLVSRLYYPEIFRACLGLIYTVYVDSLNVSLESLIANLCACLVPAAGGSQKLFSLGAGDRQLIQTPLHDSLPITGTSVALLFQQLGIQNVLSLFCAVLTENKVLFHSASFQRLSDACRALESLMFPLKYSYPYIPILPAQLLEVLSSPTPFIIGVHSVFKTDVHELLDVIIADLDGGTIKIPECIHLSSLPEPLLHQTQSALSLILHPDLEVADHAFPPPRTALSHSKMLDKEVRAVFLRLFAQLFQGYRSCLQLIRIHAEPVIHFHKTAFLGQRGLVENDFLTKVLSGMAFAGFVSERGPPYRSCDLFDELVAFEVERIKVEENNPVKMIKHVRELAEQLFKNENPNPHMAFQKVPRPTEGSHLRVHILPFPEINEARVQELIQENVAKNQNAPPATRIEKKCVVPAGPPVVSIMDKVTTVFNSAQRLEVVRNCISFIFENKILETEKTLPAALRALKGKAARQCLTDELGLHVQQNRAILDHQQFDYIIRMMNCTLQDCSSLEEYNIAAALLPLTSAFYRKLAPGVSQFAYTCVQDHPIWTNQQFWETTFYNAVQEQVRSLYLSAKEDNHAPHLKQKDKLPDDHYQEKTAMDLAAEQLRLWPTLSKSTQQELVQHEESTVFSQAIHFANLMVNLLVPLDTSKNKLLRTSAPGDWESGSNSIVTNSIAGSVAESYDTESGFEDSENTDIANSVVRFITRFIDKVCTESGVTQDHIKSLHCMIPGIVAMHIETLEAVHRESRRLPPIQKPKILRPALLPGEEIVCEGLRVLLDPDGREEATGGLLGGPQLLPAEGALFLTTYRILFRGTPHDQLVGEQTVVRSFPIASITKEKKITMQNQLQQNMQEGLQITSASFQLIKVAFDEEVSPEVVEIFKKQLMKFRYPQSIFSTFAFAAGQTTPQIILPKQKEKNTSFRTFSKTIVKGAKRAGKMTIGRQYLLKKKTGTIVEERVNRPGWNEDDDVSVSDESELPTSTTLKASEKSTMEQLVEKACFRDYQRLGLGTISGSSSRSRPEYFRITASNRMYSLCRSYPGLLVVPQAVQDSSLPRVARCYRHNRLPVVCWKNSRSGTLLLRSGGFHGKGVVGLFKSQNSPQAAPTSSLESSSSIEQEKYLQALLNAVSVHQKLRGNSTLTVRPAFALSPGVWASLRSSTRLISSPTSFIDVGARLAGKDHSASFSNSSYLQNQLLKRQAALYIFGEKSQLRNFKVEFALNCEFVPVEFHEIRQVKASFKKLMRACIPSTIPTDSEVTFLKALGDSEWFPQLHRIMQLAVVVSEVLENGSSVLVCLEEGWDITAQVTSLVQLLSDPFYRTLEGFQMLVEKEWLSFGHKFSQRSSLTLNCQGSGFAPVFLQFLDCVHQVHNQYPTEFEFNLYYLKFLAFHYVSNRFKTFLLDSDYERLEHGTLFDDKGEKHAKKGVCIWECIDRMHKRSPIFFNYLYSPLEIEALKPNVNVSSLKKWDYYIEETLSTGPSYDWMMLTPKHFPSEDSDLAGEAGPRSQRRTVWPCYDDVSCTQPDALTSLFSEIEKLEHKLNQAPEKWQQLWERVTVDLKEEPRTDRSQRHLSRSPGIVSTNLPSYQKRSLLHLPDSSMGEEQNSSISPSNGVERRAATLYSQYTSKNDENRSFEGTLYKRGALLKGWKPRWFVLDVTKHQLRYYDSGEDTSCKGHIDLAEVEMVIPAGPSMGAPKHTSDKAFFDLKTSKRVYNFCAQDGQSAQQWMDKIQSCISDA

Substance | solubility change mitosis (log2) [1] | other results
ACTR3 | -0.0203 | 
ARPC2 | -0.0639 | 
BPTF | -0.0311 | 
BTF3 | 0.172 | 
CDK2 | -0.211 | 
CTR9 | -0.0445 | 
DNPEP | -0.0236 | 
DTX3L | 0.0969 | 
EEF2 | -0.164 | 
FAM175B | -0.114 | 
FSCN1 | -0.135 | 
HIST1H4A | 0.331 | 
JMJD6 | -0.18 | 
LDHA | -0.0758 | 
MFTSEKGVVEEWLSEFKTLPETSLPNYATNLKDKSSLVSSLYKVIQEPQSELLEPVCHQLFEFYRSGEEQLLQFTLQFLPELIWCYLAVSASRNVHSSGCIEALLLGVYNLEIVDKQGHTKVLSFTIPSLSKPSVYHEPSSIGSMALTESALSQHGLSKVVYSGPHPQREMLTAQNRFEVLTFLLLCYNAALTYMPSVSLQSLCQICSRICVCGYPRQHVRKYKGISSRIPVSSGFMVQMLTGIYFAFYNGEWDLAQKALDDIIYRAQLELYPEPLLVANAIKASLPHGPMKSNKEGTRCIQVEITPTSSRISRNAVTSMSIRGHRWKRHGNTELTGQEELMEISEVDEGFYSRAASSTSQSGLSNSSHNCSNKPSIGKNHRRSGGSKTGGKEKETTGESCKDHFARKQTQRAQSENLELLSLKRLTLTTSQSLPKPSSHGLAKTAATVFSKSFEQVSGVTVPHNPSSAVGCGAGTDANRFSACSLQEEKLIYVSERTELPMKHQSGQQRPPSISITLSTD [FAM126A] |  | thermal stability score [2, 4]: 0.141; thermal stability score ([2]; cell cycle stage: mitosis): 0.0377; melting temperature ([3]; cell cycle stage: mitosis): 50.9 °C
MLCRLGGRWLRPLPALQLWARDLPLAPVPTSGAKRPTLPVWAVAPVSAVHANGWYEALAASSPVRVAEEVLLGVHAATGLPWWGSILLSTVALRGAVTLPLAAYQHYILAKVENLQPEIKTIARHLNQEVAVRANQLGWSKRDARLTYLKNMRRLISELYVRDNCHPFKATVLVWIQLPMWIFMSFALRNLSTGAAHSEGFSVQEQLATGGILWFPDLTAPDSTWILPISVGVINLLIVEICALQKIGMSRFQTYITYFVRAMSVLMIPIAATVPSSIVLYWLCSSFVGLSQNLLLRSPGFRQLCRIPSTKSDSETPYKDIFAAFNTKFISRK [COX18] |  | thermal stability score [2, 4]: 0.867; thermal stability score ([2]; cell cycle stage: mitosis): -0.575; melting temperature ([3]; cell cycle stage: mitosis): 57.1 °C
MMKLKSNQTRTYDGDGYKKRAACLCFRSESEEEVLLVSSSRHPDRWIVPGGGMEPEEEPSVAAVREVCEEAGVKGTLGRLVGIFENQERKHRTYVYVLIVTEVLEDWEDSVNIGRKREWFKIEDAIKVLQYHKPVQASYFETLRQGYSANNGTPVVATTYSVSAQSSMSGIR [NUDT3] |  | thermal stability score [2, 4]: -1.86; thermal stability score ([2]; cell cycle stage: mitosis): -1.36; melting temperature ([3]; cell cycle stage: G1/S): 53.4 °C; melting temperature ([3]; cell cycle stage: mitosis): 54.7 °C
MPGRSCVALVLLAAAVSCAVAQHAPPWTEDCRKSTYPPSGPTYRGAVPWYTINLDLPPYKRWHELMLDKAPVLKVIVNSLKNMINTFVPSGKIMQVVDEKLPGLLGNFPGPFEEEMKGIAAVTDIPLGEIISFNIFYELFTICTSIVAEDKKGHLIHGRNMDFGVFLGWNINNDTWVITEQLKPLTVNLDFQRNNKTVFKASSFAGYVGMLTGFKPGLFSLTLNERFSINGGYLGILEWILGKKDVMWIGFLTRTVLENSTSYEEAKNLLTKTKILAPAYFILGGNQSGEGCVITRDRKESLDVYELDAKQGRWYVVQTNYDRWKHPFFLDDRRTPAKMCLNRTSQENISFETMYDVLSTKPVLNKLTVYTTLIDVTKGQFETYLRDCPDPCIGW [ASAH1] |  | thermal stability score [2, 4]: -1.25; thermal stability score ([2]; cell cycle stage: mitosis): -2.17; melting temperature ([3]; cell cycle stage: G1/S): 55.8 °C; melting temperature ([3]; cell cycle stage: mitosis): 55.9 °C
MPKNKKRNTPHRGSSAGGGGSGAAAATAATAGGQHRNVQPFSDEDASIETMSHCSGYSDPSSFAEDGPEVLDEEGTQEDLEYKLKGLIDLTLDKSAKTRQAALEGIKNALASKMLYEFILERRMTLTDSIERCLKKGKSDEQRAAAALASVLCIQLGPGIESEEILKTLGPILKKIICDGSASMQARQTCATCFGVCCFIATDDITELYSTLECLENIFTKSYLKEKDTTVICSTPNTVLHISSLLAWTLLLTICPINEVKKKLEMHFHKLPSLLSCDDVNMRIAAGESLALLFELARGIESDFFYEDMESLTQMLRALATDGNKHRAKVDKRKQRSVFRDVLRAVEERDFPTETIKFGPERMYIDCWVKKHTYDTFKEVLGSGMQYHLQSNEFLRNVFELGPPVMLDAATLKTMKISRFERHLYNSAAFKARTKARSKCRDKRADVGEFF [IFRD1] |  | thermal stability score [2, 4]: 0.75; thermal stability score ([2]; cell cycle stage: mitosis): 1.11; melting temperature ([3]; cell cycle stage: G1/S): 56.4 °C
MQPPGPPPAYAPTNGDFTFVSSADAEDLSGSIASPDVKLNLGGDFIKESTATTFLRQRGYGWLLEVEDDDPEDNKPLLEELDIDLKDIYYKIRCVLMPMPSLGFNRQVVRDNPDFWGPLAVVLFFSMISLYGQFRVVSWIITIWIFGSLTIFLLARVLGGEVAYGQVLGVIGYSLLPLIVIAPVLLVVGSFEVVSTLIKLFGVFWAAYSAASLLVGEEFKTKKPLLIYPIFLLYIYFLSLYTGV [YIPF4] |  | thermal stability score [2, 4]: -0.481; thermal stability score ([2]; cell cycle stage: mitosis): -2.96; melting temperature ([3]; cell cycle stage: G1/S): 57.7 °C; melting temperature ([3]; cell cycle stage: mitosis): 56.1 °C
MREYKVVVLGSGGVGKSALTVQFVTGSFIEKYDPTIEDFYRKEIEVDSSPSVLEILDTAGTEQFASMRDLYIKNGQGFILVYSLVNQQSFQDIKPMRDQIIRVKRYERVPMILVGNKVDLEGEREVSYGEGKALAEEWSCPFMETSAKNKASVDELFAEIVRQMNYAAQPNGDEGCCSACVIL [RAP2B] |  | thermal stability score [2, 4]: -0.0087; thermal stability score ([2]; cell cycle stage: mitosis): 0.542; melting temperature ([3]; cell cycle stage: G1/S): 59.2 °C; melting temperature ([3]; cell cycle stage: mitosis): 60.7 °C
MRPL1 | -0.101 | 
MRPL2 | 0.0937 | 

Substance | solubility change mitosis (log2) [1] | other results
MRPL9 | -0.0572 | 
MRPL13 | -0.0691 | 
MRPL20 | -0.0687 | 
MRPL28 | 0.00818 | 
MRPL30 | 0.00936 | 
MRPL32 | 0.35 | 
MRPL33 | -0.0245 | 
MRPL41 | 0.232 | 
MRPL43 | 0.445 | 
MRPS6 | 0.0185 | 
MRPS10 | -0.0122 | 
MRPS11 | -0.0467 | 
MRPS21 | 0.0482 | 
MRPS22 | -0.0527 | 
MRPS23 | 0.188 | 
MRPS24 | -0.0858 | 
MRPS31 | -0.0986 | 
MRPS35 | 0.0565 | 
MTAEETVNVKEVEIIKLILDFLNSKKLHISMLALEKESGVINGLFSDDMLFLRQLILDGQWDEVLQFIQPLECMEKFDKKRFRYIILKQKFLEALCVNNAMSAEDEPQHLEFTMQEAVQCLHALEEYCPSKDDYSKLCLLLTLPRLTNHAEFKDWNPSTARVHCFEEACVMVAEFIPADRKLSEAGFKASNNRLFQLVMKGLLYECCVEFCQSKATGEEITESEVLLGIDLLCGNGCDDLDLSLLSWLQNLPSSVFSCAFEQKMLNIHVDKLLKPTKAAYADLLTPLISKLSPYPSSPMRRPQSADAYMTRSLNPALDGLTCGLTSHDKRISDLGNKTSPMSHSFANFHYPGVQNLSRSLMLENTECHSIYEESPERDTPVDAQRPIGSEILGQSSVSEKEPANGAQNPGPAKQEKNELRDSTEQFQEYYRQRLRYQQHLEQKEQQRQIYQQMLLEGGVNQEDGPDQQQNLTEQFLNRSIQKLGELNIGMDGLGNEVSALNQQCNGSKGNGSNGSSVTSFTTPPQDSSQRLTHDASNIHTSTPRNPGSTNHIPFLEESPCGSQISSEHSVIKPPLGDSPGSLSRSKGEEDDKSKKQFVCINILEDTQAVRAVAFHPAGGLYAVGSNSKTLRVCAYPDVIDPSAHETPKQPVVRFKRNKHHKGSIYCVAWSPCGQLLATGSNDKYVKVLPFNAETCNATGPDLEFSMHDGTIRDLAFMEGPESGGAILISAGAGDCNIYTTDCQRGQGLHALSGHTGHILALYTWSGWMIASGSQDKTVRFWDLRVPSCVRVVGTTFHGTGSAVASVAVDPSGRLLATGQEDSSCMLYDIRGGRMVQSYHPHSSDVRSVRFSPGAHYLLTGSYDMKIKVTDLQGDLTKQLPIMVVGEHKDKVIQCRWHTQDLSFLSSSADRTVTLWTYNG [WDR47] |  | thermal stability score [2, 4]: -2.39; thermal stability score ([2]; cell cycle stage: mitosis): -1.92; melting temperature ([3]; cell cycle stage: G1/S): 54.4 °C; melting temperature ([3]; cell cycle stage: mitosis): 52.6 °C
MTMAAAAVVARGAGARAATAAALRGGCGTAARGRPCAGPARPLCTAPGTAPDMKRYLWERYREAKRSTEELVPSIMSNLLNPDAIFSNNEMSLSDIEIYGFDYDYTLVFYSKHLHTLIFNAARDLLINEHRYPAEIRKYEYDPNFAIRGLHYDVQRAVLMKIDAFHYIQLGTVYRGLSVVPDEEVIEMYEGSHVPLEQMSDFYGKSSHGNTMKQFMDIFSLPEMTLLSCVNEYFLKNNIDYEPVHLYKDVKDSIRDVHIKGIMYRAIEADIEKYICYAEQTRAVLAKLADHGKKMFLITNSPSSFVDKGMSYIVGKDWRDLFDVVIVQAEKPNFFNDKRRPFRKMNEKGVLLWDKIHKLQKGQIYKQGNLYEFLKLTGWRGSRVLYFGDHIYSDLADLTLKHGWRTGAIIPELRSELKIMNTEQYIQTMTWLQTLTGLLEQMQVHRDAESQLVLQEWKKERKEMREMTKSFFNAQFGSLFRTDQNPTYFLRRLSRFADIYMASLSCLLNYDVSHTFYPRRTPLQHELPAWSERPPTFGTPLLQEAQAK [NT5DC3] |  | thermal stability score [2, 4]: -1.05; thermal stability score ([2]; cell cycle stage: mitosis): -1.22; melting temperature ([3]; cell cycle stage: G1/S): 53.4 °C; melting temperature ([3]; cell cycle stage: mitosis): 54 °C
NAA40 | 0.145 | 
PRKACB | -0.134 | 
PSEN1 | 0.045 | 

Substance | solubility change mitosis (log2) [1] | other results
RPL3 | 0.667 | 
RPL5 | 0.442 | 
RPL7A | 0.753 | 
RPL9 | 0.502 | 
RPL12 | 0.659 | 
RPL13A | 0.619 | 
RPL18 | 0.797 | 
RPL19 | 0.873 | 
RPL21 | 0.856 | 
RPL22 | 0.576 | 
RPL26L1 | 0.994 | 
RPL35 | 1.27 | 
RPS2 | 0.389 | 
RPS8 | 0.735 | 
RPS9 | 0.434 | 
RPS13 | 0.484 | 
RPS15 | 0.616 | 
RPS15A | 0.424 | 
RPS16 | 0.511 | 
RPS18 | 0.385 | 
RPS28 | 0.73 | 
SBF2 |  | thermal stability score [2, 4]: -0.139; thermal stability score ([2]; cell cycle stage: mitosis): 0.0344; melting temperature ([3]; cell cycle stage: mitosis): 52.3 °C
TIMP1 |  | thermal stability score [2, 4]: 0.849; thermal stability score ([2]; cell cycle stage: mitosis): -1.24; melting temperature ([3]; cell cycle stage: G1/S): 54.8 °C; melting temperature ([3]; cell cycle stage: mitosis): 54.5 °C
